Patent US20190389970A1
Blank lines part the entries; values can stand above or below the binder they belong to.

How the values were obtained:
Free BSA (Sigma A6003) [1] = target: Free BSA (Sigma A6003) (UniProt P02769); assay: ELISA, free BSA coated at 300 ng/well, anti-IgG (gamma) detection
Free BSA (Sigma A6003) [2] = target: Free BSA (Sigma A6003) (UniProt P02769); assay: ELISA, free BSA coated at 500 ng/well in sodium bicarbonate, gamma detection, antibody at 0.1 µg/ml
Free BSA (Sigma A6003) [3] = target: Free BSA (Sigma A6003) (UniProt P02769); assay: ELISA, free BSA coated at 500 ng/well in sodium bicarbonate, gamma detection, antibody at 10 µg/ml
Free BSA (Sigma A6003) [4] = target: Free BSA (Sigma A6003) (UniProt P02769); assay: ELISA, free BSA coated at 500 ng/well in sodium bicarbonate, gamma detection, antibody at 1 µg/ml

Chain of UniProt P02769 (P02769 25-607 limits assumed): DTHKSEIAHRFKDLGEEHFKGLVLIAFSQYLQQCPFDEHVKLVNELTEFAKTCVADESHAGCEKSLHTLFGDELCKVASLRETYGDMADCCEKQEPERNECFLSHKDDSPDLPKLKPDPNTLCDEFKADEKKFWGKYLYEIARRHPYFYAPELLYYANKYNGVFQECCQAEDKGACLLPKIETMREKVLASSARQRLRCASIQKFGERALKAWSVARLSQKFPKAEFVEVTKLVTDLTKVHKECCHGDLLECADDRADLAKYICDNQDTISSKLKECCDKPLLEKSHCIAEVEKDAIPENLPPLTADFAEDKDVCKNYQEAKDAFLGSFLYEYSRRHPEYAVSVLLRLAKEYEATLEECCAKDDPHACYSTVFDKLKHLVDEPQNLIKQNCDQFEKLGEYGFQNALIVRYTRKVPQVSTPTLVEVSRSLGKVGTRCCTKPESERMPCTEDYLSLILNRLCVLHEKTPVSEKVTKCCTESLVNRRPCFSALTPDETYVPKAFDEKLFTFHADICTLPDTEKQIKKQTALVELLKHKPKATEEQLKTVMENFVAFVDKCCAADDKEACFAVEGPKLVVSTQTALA

OD (Free BSA (Sigma A6003) [1]): 0.095 OD
B1: 9H10 (antibody, IgM, V domains shown)
VH: QVQLKQSGPGLVQPSQSLSITCTVSGFSLTSYGVHWVRQSPGKGLEWLGVIWSGGSTDYNAAFISRLSISKDNSKSQVFFKMNSLQADDTAIYYCARNYGYDYAMDYWGQGTSVTVSS
VL: DILLTQSPAILSVSPGERVSFSCRASQSIGTSIHWYQQRTNGSPRLLIKYASESISGIPSRFSGSGSGTDFTLSINSVESEDIADYYCQQSNSWPFTFGSGTKLEIK

OD (Free BSA (Sigma A6003) [1]): 0.105 OD
B4: 9H11 (antibody, IgM, V domains shown)
VH: QVQLQQSGAELAKPGASVKLSCKASGYTFTSYWMHWVKQRPGQGLEWIGYINPSSGYTKYNQKFKDKATLTADKSSSTAYMQLSSLTYEDSAVYYCARGGYYGFAYWGQGTLVTVSA
VL: QIVLTQSPALMSASPGEKVTMTCSASSSVSYMYWYQQKPRSSPKPWIYLTSNLASGVPARFSGSGSGTSYSLTISSMEAEDAATYYCQQWSSNPLTFGAGTKLELK

Continued, binder first:

B2: 6B5 (antibody, V domains shown)
VH: QVQLQQSDAELVKPGASVKISCKVSGYTFTDHTIHWMKQRPEQGLEWIGYNYPRDGSTKYNEKFKGKATLTADKSSSTAYMQLNSLTSEDSAVYFCAKGFITTVVPSAYWGQGTLVTVSA
VL: DVQITQSPSYLAASPGETITINCRASKSISKYLAWYQEKPGKTNKLLIYSGSTLQSGIPSRFSGSGSGTDFTLTISSLEPEDFAMYYCQQHNEYPWTFGGGTKLEIK
OD (Free BSA (Sigma A6003) [2]): 0.079 OD
OD (Free BSA (Sigma A6003) [1]): 1.29 OD
OD (Free BSA (Sigma A6003) [3]): 0.15 OD
OD (Free BSA (Sigma A6003) [4]): 0.119 OD

B3: 7B10 (antibody, IgM, V domains shown)
VH: B4 VH
VL: B4 VL
OD (Free BSA (Sigma A6003) [1]): 0.077 OD

B5: 6C8 (antibody, V domains shown)
VH: QVQLQQSGAELVKPGASVKISCKASGYAFSSYWMNWVKQRPGKGLEWIGQIYPGDGDTNYNGKFKGKATLTADKSSSTAYMQLSSLTSEDSAVYFCTRRCYYGLYFDVWGTGTTVTVSS
VL: DIKMTQSPSSRYASLGERVTITCKASQDINRYLSWFQQKPGKSPKTLIYRANRLVDGVPSRFSGSGSGQDYSLTISSLEYEDMGIYYCLQYDEFPYTFGGGTKLEIK
OD (Free BSA (Sigma A6003) [2]): 0.056 OD
OD (Free BSA (Sigma A6003) [1]): 0.098 OD
OD (Free BSA (Sigma A6003) [3]): 0.062 OD
OD (Free BSA (Sigma A6003) [4]): 0.057 OD
